A short description of the series: soluble on expression in E. coli; label from the status in PepcDB or PDB records.
On to “MSEFNEKPEKLIVDGLRLDGRKFDELRPIKIEASVLKRADGSCYLEMGKNKVIAAVFGPREVHPRHLQDPSKAIIRYRYNMAPFSVEERKRPGPDRRSIEISKVSKEAFEAVIMKELFPRSAIDIFVEVLQADAGSRTACLNAASVALVDAGVPMKGMITSVAVGKADGQLVLDPMKEEDNFGEADMPFAFLIRNGKIESIALLQMDGRMTRDEVKQAIELAKKGALQIYEMQREAILRRYIEVGEEMDEITEGGEDA”, for which the “soluble on expression in E. coli” value is “soluble”.
The entry for “MSEGWNIAVLGATGAMGEALLETLAERQFPVGEIYALARNESAGEQLRFGGKTITVQDAAEFDWTQAQLAFFVAGKEATAAWVEEATNSGCLVIDSSGLFALEPDVPLVVPEVNPFVLTDYRNRNVIAVPDSLTSQLLAALKPLIDQGGLSRISVTSLISASAQGKKAVDALAGQSAKLLNGIPIDEEDFFGRQLAFNMLPLLPDSEGSVREERRIVDEVRKILQDEGLMISASVVQAPVFYGHAQMVNFEALRPLAAEEARDAFAQGEDIVLSEENEFPTQVGDASGTPHLSVGCVRNDYGMPEQVQFWSVADNVRFGGALMAVKIAEKLVQEYLY” is “not soluble”; for “MSEKPAESAAAVADSATTTAPQSGKPETALPALIDTQATAETRALYRNLAKLRYKHLLFGHEDSLAYGVHWEGDMDRSDVRDVTGANPAVYGWELGGLELGHTANLDAVNFEKMQHWIKAGYSRGGVITISWHVFNPVSGGNSWDKTPAVHELIPGGARHATLKAYLDTFVAFNEGLADVDAQGNKHYPPIIFRPWHEHNGDWFWWGKGHASEQDYIALWRFTVHYLRDEKKLRNLIYAYSPDRSRIDMANFEAGYLYGYPGDAYVDIIGLDNYWDVGHEANTASADEQKAALTASLKQLVQIARSKGKIAALTETGNNRLTIDNFWTERLLGPISADADASEIAYVMVWRNANLAREKSEQFFAPFPGQATADDFKRFYQSEVVLFEDELPPLYR” it is “soluble”.
Consider “MSELFSERIPPQSIEAEQAVLGAVFLDPAALVPASEILIPEDFYRAAHQKIFHAMLRVADRGEPVDLVTVTAELAASEQLEEIGGVSYLSELADAVPTAANVEYYARIVEEKSVLRRLIRTATSIAQDGYTREDEIDVLLDEADRKIMEVSQRKHSGAFKNIKDILVQTYDNIEMLHNRDGEITGIPTGFTELDRMTSGFQRSDLIIVAARPSVGKTAFALNIAQNVATKTNENVAIFSLEMSAQQLVMRMLCAEGNINAQNLRTGKLTPEDWGKLTMAMGSLSNAGIYIDDTPSIRVSDIRAKCRRLKQESGLGMIVIDYLQLIQGSGRSKENRQQEVSEISRSLKALARELEVPVIALSQLSRSVEQRQDKRPMMSDIRESGSIEQDADIVAFLYRDDYYNKDSENKNIIEIIIAKQRNGPVGTVQLAFIKEYNKFVNLERRFDEAQIPPGA”, for which the “soluble on expression in E. coli” value is given as “soluble”.
The same measure for “MSELIRVPDIGNGEGEVIELLVKPGDKVEADQSLLTLESDKASMEIPSPKAGVVKSIKAKVGDTLKEGDEILELEVEGGEQPAEAKAEAAPAQPEAPKAEAPAPAPSESKPAAPAAASVQDIKVPDIGSAGKANVIEVMVKAGDTVEADQSLITLESDKASMEIPSPASGVVESVSIKVGDEVGTGDLILKLKVEGAA”: “not soluble”.
The same measure for “MSELQNPKPSSLSRDAFIATYADIYEHSPWVAEQAFNQDAGPELDQLDTLHARLSDILLNATHAQQLALINAHPDLAGKAAVKGELTQASTDEQAGAGIHLCTPDEFQRFTELNGAYKARFGFPFIMAVKGSDRHKILAAFEQRIHHSPEAEFACALAEINKIALFRLQALHASQAAAALEHHHHHH”: “soluble”.
The same measure for “MSELSDEEISLQALYDPSKKVIGDIEDGIFSTPELQPRIKTGIDNLQLVTKLVNQMRLFSSNEQIEDVPTNSLPYLLVPCFLGILHQNLMTEPGLKLDELRKSKIYMRNFLDRLRDLCLITTRLPWEDEDTEEQNLKEKPKLAVEEIRRLKLERHKKKQELKMAELRIQKQLEAVSIDEQNLRELYITQLLFWSERCYEELQAIDDELPLLKMMAERASHPHRHPAPPPATKTVPTLKPFIITRDAQQKQVFGLGYPGIPAMSVDEWYHQKFGHNPQNAPQSSAPAGAEAQESEEEVDDDEARAKAMRWDEYKDDHRRGWGNMHNKG”: “soluble”.

Values taken from the DeepSol protein solubility set.
